# Source: patent US20190352411A1 (ALLIGATOR BIOSCIENCE, published 2019)
# Like-named read-outs stand apart in the source and are kept apart here.
# T1: recombinant human OX40 (R&D #1493-CD) (human, UniProt P43489 29-216, limits assumed)
# T1 construct: Coated on ELISA plates
# T1 sequence (looked up): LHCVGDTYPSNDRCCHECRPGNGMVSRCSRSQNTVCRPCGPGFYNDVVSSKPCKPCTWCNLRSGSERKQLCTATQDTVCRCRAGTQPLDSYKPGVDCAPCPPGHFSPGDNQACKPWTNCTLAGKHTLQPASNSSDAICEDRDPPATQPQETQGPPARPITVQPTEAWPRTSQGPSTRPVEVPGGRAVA
# Tests used:
# [1] = molecular target: T1, recombinant human OX40 (R&D #1493-CD); assay: ELISA, coated OX40
# Experimental: (§1) Binding to TNFR superfamily members for which ELISA methods had already been established (CD40 and OX40) was evaluated to detect potential propensity to cross react to non-target proteins.
# (§2) ELISA plates (Greiner #655074) were coated with 50 μl/well of recombinant human OX40 (R&D #1493-CD), CD40-Fc (Ancell #504-820) or CD137 (R&D #838-4B) diluted to a final concentration of 0.5 μg/ml in PBS for 1 h at 37° C. or overnight at 4° C. Plates were washed with PBS+0.05% TWEEN20 (PBST), followed by block with PBST+1% bovine serum albumin (BSA). Antibody samples were prepared as serial 1/10 dilutions from 10-0.01 μg/ml in PBST+1% BSA and incubated for 1 h in room temperature, followed by detection using a horse radish peroxidase-conjugated anti-human kappa light chain antibody (AbD Serotec # STAR127P) and developed using SuperSignal ELISA Pico Chemiluminescent substrate (Pierce ThermoScientific #37069).
# [2] = molecular target: T2, CD40-Fc (Ancell #504-820) (human, UniProt P25942 21-193); assay: ELISA, coated CD40-Fc
# T2 construct: Coated on ELISA plates; not shown: Fc part of the commercial fusion protein; not described
# Experimental: as §1, §2
# [3] = molecular target: T3, 1550: Human CD137 with mouse domains 1, 2A and 2B (aa 24-86) (human; mouse, UniProt P20334 24-85); assay: flow cytometry on transfected 293-F cells, human/mouse CD137 chimera
# T3 construct: domain: domains 1, 2A and 2B (aa 24-86); Human/mouse chimera transiently expressed on FreeStyle 293-F cells; Limits of the human pieces are worked out from the printed aa range
# Experimental: (§3) The ability of each antibody to bind to a panel of human/mouse CD137 chimeras expressed on the surface of transfected cells was analyzed by flow cytometry.
# (§4) The chimeras were designed by exchanging domains or modules of the human CD137 with the corresponding mouse domain. Genes of CD137 human/mouse chimeras were synthesized (GenScript) and constructs cloned into pcDNA3.1 vector (Invitrogen) and transiently transfected into FreeStyle 293-F cells (Invitrogen). The transfected cells were incubated with CD137 antibodies and control antibodies, followed by incubation with anti-human IgG-PE (Jackson Immunoresearch) for detection and analyzed with FACS Verse (BD Biosciences). Binding to the different chimeric constructs was calculated as relative MFI compared to the binding of the isotype control, followed by normalization to the full-length human CD137 construct to minimize the effect of affinity differences between individual antibodies.
# [4] = molecular target: T4, 1551: Human CD137 with mouse domains 2A, 2B and 3A (aa 47-96) (human; mouse, UniProt P20334 46-95); assay: as above
# T4 construct: domain: domains 2A, 2B and 3A (aa 47-96); Human/mouse chimera transiently expressed on FreeStyle 293-F cells
# Experimental: as §3, §4
# [5] = molecular target: T5, 1552: Human CD137 with mouse domains 2B, 3A and 3B (aa 64-118) (human; mouse, UniProt P20334 63-117); assay: as above
# T5 construct: Human/mouse chimera transiently expressed on FreeStyle 293-F cells
# Experimental: as §3, §4
# [6] = molecular target: T6, 1553: Human CD137 with mouse domains 3A, 3B and 4A (aa 87-133) (human; mouse, UniProt P20334 86-133); assay: as above
# T6 construct: domain: domains 3A, 3B and 4A (aa 87-133); Human/mouse chimera transiently expressed on FreeStyle 293-F cells
# Experimental: as §3, §4
# [7] = molecular target: T7, 1555: Human CD137 with mouse domains 1 and 4B and region of unknown function (aa 24-46 and aa 139-186) (human; mouse, UniProt P20334 24-45; P20334 139-185); assay: as above
# T7 construct: Human/mouse chimera transiently expressed on FreeStyle 293-F cells
# Experimental: as §3, §4
# [8] = molecular target: T8, human CD137 on transfected CHO cells (CHO-huCD137) (human); assay: flow cytometry on CHO-huCD137 cells; 95% confidence interval of the EC50
# T8 construct: domain: transmembrane and intracellular part
# Experimental: (§5) Binding and EC50 was determined using flow cytometric of CHO cells transfected with human CD137, cynomolgus CD137 or empty vector. The extracellular part of human or cynomolgus CD137 was fused to the transmembrane and intracellular part of human CD40 and cloned into pcDNA3.1. The vector was subsequently stably transfected into CHO cells. […] CD137-transfected and empty vector-transfected cells were incubated with CD137 antibodies for at least 1 h at 4° C. to saturate the binding. In order to minimize antibody internalization, 0.05% sodium azide was used in the incubation buffer and all work was performed on ice. The CD137 antibodies were detected using PE-conjugated anti-hIgG antibody (109-115-098, Jackson Immunoresearch laboratories), incubated for 30 min at 4° C. Directly after staining the cells were fixed with a paraformaldehyde solution (10× concentrate BD CellFIX, BD biosciences #340181). Cells were analyzed by flow cytometry using FACSVerse (BD Biosciences). The median fluorescence intensity (MFI) for each sample was determined and the dose response data was analysed using Graph Pad Prism.
# (§6) MFI data was normalized for each antibody, where 0% is defined as the lowest value and 100% is the highest value in the dose titration for each antibody.
# [9] = molecular target: T8, human CD137 on transfected CHO cells …; assay: as above; remark: listed apart in the source
# Experimental: as §5, §6
# [10] = molecular target: T9, cynomolgus CD137 on transfected CHO cells (CHO-cyCD137) (cynomolgus (Macaca fascicularis); human); assay: flow cytometry on CHO cells transfected with cynomolgus CD137, PE anti-hIgG detection, MFI normalised 0-100% for each antibody
# T9 construct: extracellular domain;domain: transmembrane and intracellular part; also called cyno CD137
# Experimental: as §5, §6
# T8 sequence (P25942 other isoform, or with tags, fused parts or gaps limits assumed): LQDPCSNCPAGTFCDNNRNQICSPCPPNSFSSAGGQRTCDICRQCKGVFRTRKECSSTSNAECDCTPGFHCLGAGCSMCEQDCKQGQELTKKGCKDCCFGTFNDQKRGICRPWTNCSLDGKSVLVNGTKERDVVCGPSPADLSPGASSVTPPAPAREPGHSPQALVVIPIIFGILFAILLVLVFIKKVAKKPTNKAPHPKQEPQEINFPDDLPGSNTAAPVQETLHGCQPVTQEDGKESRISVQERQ
# T3 sequence (P20334 other isoform, or with tags, fused parts or gaps limits assumed): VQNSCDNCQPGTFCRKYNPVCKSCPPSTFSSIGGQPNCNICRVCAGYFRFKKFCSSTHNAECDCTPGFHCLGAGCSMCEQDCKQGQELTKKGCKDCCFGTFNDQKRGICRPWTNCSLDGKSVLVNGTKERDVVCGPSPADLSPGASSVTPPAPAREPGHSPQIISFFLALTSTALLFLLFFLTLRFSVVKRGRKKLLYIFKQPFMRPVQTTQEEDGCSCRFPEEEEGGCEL
# T5 sequence (P20334 other isoform, or with tags, fused parts or gaps limits assumed): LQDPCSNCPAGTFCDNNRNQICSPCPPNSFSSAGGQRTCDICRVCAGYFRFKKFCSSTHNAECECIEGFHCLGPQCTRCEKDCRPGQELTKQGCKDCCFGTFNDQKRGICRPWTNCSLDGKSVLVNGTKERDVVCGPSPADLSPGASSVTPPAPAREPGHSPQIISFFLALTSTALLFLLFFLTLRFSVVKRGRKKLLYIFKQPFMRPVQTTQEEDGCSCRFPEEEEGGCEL
# T9 sequence (P25942 other isoform, or with tags, fused parts or gaps): as the sequence (P25942 other isoform, or with tags, fused parts or gaps limits assumed) above, with P4L, N19S, R50K, T66I, P67S, F69Y, G75E, V149A counted along it
# T6 sequence (P20334 other isoform, or with tags, fused parts or gaps limits assumed): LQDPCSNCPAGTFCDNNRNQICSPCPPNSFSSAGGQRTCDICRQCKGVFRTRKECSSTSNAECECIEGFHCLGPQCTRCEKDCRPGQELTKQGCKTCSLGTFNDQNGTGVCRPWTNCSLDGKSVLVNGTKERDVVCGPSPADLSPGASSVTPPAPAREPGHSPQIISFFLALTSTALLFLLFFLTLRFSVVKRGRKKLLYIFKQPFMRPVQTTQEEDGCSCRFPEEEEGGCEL
# T4 sequence (P20334 other isoform, or with tags, fused parts or gaps limits assumed): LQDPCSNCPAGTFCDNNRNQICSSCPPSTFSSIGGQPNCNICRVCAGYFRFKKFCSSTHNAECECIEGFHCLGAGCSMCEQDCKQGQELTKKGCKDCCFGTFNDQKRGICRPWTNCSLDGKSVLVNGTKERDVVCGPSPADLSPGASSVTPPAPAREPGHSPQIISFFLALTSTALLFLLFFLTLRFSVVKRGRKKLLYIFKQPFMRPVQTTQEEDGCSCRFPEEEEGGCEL
# T2 sequence (P25942 21-193 limits assumed): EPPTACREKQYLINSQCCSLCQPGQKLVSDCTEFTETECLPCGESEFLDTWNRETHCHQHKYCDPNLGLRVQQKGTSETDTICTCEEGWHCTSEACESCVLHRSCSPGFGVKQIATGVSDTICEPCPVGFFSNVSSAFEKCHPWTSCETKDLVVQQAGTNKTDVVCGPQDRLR
# T7 sequence (P20334 other isoform, or with tags, fused parts or gaps limits assumed): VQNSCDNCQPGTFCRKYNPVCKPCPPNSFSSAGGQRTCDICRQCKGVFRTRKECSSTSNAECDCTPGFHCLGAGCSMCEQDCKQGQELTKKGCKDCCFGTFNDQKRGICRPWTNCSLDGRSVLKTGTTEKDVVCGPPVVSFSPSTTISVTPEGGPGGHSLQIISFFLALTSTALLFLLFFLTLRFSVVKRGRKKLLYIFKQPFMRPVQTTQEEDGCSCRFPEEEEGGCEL
binder,measurement,setting,value
"1630/1631 (antibody, human IgG4 S228P, kappa, V domains shown, the format in each assay is not restated) VH: EVQLLESGGGLVQPGGSLRLSCAASGFTFGYSYMSWVRQAPGKGLEWVSSIGSGSSYTYYADSVKGRFTISRDNSKNTLYLQMNSLRAEDTAVYYCARVYSSPGIDYWGQGTLVTVSS VL: DIQMTQSPSSLSASVGDRVTITCRASQSISSYLNWYQQKPGKAPKLLIYAASSLQSGVPSRFSGSGSGTDFTLTISSLQPEDFATYYCQQYYTWVPFTFGQGTKLEIKR",binding result,[1],no binding (tested: 10 µg/ml highest concentration tested)
same,binding result,[2],no binding (tested: 10 µg/ml highest concentration tested)
same,"MFI antibody/isotype control, normalized to full-length human CD137",[3],0.11
same,"MFI antibody/isotype control, normalized to full-length human CD137",[4],0.1
same,"MFI antibody/isotype control, normalized to full-length human CD137",[5],0.25
same,"MFI antibody/isotype control, normalized to full-length human CD137",[6],0.91
same,"MFI antibody/isotype control, normalized to full-length human CD137",[7],0.35
same,EC50,[8],0.17 to 0.26 µg/mL
same,EC50,[9],0.23 to 0.34 nM
same,EC50 (read off the curve),[10],~0.1 µg/mL
